Reference: article PMC8659110 (2021)
Primed or numbered codes have the meaning given here. Where no end group is shown, it is not given here. Cy5 = Cy5 fluorophore (fluorescent dye); NODAGA′ = chelator

Target: NRP-1 recombinant chimeric protein ( (recombinant human/rat NRP-1 …, UniProt O14786 22-856))
Experiment: ELISA; competition with biotinylated VEGF-165

Chain of NRP-1 recombinant chimeric protein ( (O14786 22-856, change not shown): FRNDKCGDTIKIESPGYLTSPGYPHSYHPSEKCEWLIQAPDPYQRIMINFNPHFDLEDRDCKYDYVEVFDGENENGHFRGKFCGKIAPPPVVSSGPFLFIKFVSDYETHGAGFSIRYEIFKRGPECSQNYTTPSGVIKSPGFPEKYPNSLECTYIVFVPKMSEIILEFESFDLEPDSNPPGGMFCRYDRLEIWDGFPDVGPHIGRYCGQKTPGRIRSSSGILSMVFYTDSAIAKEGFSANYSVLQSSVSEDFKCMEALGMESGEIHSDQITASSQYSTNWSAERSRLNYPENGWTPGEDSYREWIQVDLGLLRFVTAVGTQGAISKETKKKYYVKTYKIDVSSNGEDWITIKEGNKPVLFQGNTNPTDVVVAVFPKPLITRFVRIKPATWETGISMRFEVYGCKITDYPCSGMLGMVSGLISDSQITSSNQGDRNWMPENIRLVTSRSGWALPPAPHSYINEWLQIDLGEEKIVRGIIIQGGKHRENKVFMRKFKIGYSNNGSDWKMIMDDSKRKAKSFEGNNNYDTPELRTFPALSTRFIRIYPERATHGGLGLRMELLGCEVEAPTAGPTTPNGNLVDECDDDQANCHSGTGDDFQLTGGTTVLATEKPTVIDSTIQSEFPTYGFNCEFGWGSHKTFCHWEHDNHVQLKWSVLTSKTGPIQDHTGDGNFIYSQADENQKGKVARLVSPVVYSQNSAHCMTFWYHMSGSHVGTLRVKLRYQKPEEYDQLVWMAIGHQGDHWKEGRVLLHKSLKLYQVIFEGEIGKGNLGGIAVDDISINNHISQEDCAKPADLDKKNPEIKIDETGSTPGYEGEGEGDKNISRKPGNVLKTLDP

| Binder | IC50 |
| --- | --- |
| {NODAGA′}-K(Cy5)DKPPR (also: NODAGA complexed with natGa) [^natGa-NODAGA-K(Cy5)DKPPR] | 100 nM |
| KDKPPR [KDKPPR peptide] | 2000 nM |
